The source of these data is article PMC10053325.

For assay [1], the target named is T1, His-SMAD4^R361H, Q13485.
T1 chain: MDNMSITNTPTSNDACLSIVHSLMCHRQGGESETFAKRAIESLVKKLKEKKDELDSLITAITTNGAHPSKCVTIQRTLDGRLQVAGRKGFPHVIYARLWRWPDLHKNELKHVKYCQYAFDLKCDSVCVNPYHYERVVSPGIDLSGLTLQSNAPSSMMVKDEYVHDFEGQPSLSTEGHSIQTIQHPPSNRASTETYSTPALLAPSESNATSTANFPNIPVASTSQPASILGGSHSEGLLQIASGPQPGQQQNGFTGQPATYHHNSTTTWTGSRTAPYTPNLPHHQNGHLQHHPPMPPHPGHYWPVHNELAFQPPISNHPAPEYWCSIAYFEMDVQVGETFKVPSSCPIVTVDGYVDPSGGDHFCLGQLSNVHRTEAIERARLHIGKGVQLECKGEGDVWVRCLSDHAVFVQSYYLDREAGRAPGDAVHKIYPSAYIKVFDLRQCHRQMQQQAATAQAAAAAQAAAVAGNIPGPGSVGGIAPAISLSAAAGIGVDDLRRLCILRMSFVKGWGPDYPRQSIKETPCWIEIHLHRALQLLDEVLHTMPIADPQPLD
In words: AlphaScreen or HTRF. To be noted: remark: other sources report otherwise. On the technique in general: Alpha assays give light when donor and acceptor beads are brought close together.

Assay [2] deals with T2, His-SMAD4^WT, Q13485.
T2 chain: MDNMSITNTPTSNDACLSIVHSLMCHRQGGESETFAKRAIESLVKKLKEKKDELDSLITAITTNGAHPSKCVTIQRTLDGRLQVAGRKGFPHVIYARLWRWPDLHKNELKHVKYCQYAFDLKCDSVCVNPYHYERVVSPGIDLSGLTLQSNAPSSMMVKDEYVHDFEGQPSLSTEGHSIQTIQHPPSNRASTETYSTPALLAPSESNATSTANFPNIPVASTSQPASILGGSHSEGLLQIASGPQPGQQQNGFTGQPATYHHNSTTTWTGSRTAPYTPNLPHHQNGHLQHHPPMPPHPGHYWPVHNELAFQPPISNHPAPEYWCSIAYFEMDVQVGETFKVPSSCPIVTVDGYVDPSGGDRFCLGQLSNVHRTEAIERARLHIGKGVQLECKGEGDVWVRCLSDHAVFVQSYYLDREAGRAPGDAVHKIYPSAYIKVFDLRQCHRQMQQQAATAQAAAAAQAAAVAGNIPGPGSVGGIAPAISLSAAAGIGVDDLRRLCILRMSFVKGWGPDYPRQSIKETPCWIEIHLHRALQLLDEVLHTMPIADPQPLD
In words: AlphaScreen or HTRF. To be noted: remark: other sources report otherwise.

B1: Flag-SMAD3, P84022 1-425 (natural protein)
chain: MSSILPFTPPIVKRLLGWKKGEQNGQEEKWCEKAVKSLVKKLKKTGQLDELEKAITTQNVNTKCITIPRSLDGRLQVSHRKGLPHVIYCRLWRWPDLHSHHELRAMELCEFAFNMKKDEVCVNPYHYQRVETPVLPPVLVPRHTEIPAEFPPLDDYSHSIPENTNFPAGIEPQSNIPETPPPGYLSEDGETSDHQMNHSMDAGSPNLSPNPMSPAHNNLDLQPVTYCEPAFWCSISYYELNQRVGETFHASQPSMTVDGFTDPSNSERFCLGLLSNVNRNAAVELTRRHIGRGVRLYYIGGEVFAECLSDSAIFVQSPNCNQRYGWHPATVCKIPPGCNLKIFNNQEFAALLAQSVNQGFEAVYQLTRMCTIRMSFVKGWGAEYRRQTVTSTPCWIELHLNGPLQWLDKVLTQMGSPSIRCSSVS
For B1, in assay [1], the EC50 of Go-6983 in enhancing the PPI amounted to 15.2 µM, the EC50 of PKC-412 in enhancing the PPI was above 100 µM, the EC50 of Ro-31-8220 in enhancing the PPI amounted to 3.9 µM and the EC50 of UCN-1028c in enhancing the PPI was above 100 µM. In assay [1], the signal-to-background ratio (TR-FRET) was 10 fold. Moreover, in assay [2], the signal-to-background ratio (TR-FRET) amounted to 30 fold.
